Results as given in article PMC6459735 (Journal of biomolecular structure & dynamics, 2019).

Molecular target: the molecule itself
Assay: crystal structure

B1: human Caprin-2 fragment (residues 199-329), dimerization domain (domain or fragment)
chain: GPSSPSQRREHMLKLEAEKKKLRTILQVQYVLQNLTQEHVQKDFKGGLNGAVYLPSKELDYLIKFSKLTCPERNESLSVEDQMEQSSLYFWDLLEGSEKAVVGTTYKHLKDLLSKLLNSGYFESIPVPKNAKEKEVP
modifications: Se-Met labelled (L-seleno-methionine in place of methionine) in the crystal used for the structure
stoichiometry N: 2
